Source: article PMC10637977, “The preferential transport of NO3^− by full-length Guillardia theta anion channelrhodopsin 1 is enhanced by its extended cytoplasmic domain” (The Journal of Biological Chemistry, 2023)

B1: GtACR1 without the CPD (GtACR1_ΔCPD), C-terminal eight-histidine tag (domain or fragment, Guillardia theta, UniProt L1J207 1-295, looked up)
chain: MSSITCDPAIYGEWSRENQFCVEKSLITLDGIKYVQLVMAVVSACQVFFMVTRAPKVPWEAIYLPTTEMITYSLAFTGNGYIRVANGKYLPWARMASWLCTCPIMLGLVSNMALVKYKSIPLNPMMIAASSICTVFGITASVVLDPLHVWLYCFISSIFFIFEMVVAFAIFAITIHDFQTIGSPMSLKVVERLKLMRIVFYVSWMAYPILWSFSSTGACIMSENTSSVLYLLGDALCKNTYGILLWATTWGLLNGKWDRDYVKGRNVDGTLMPEYEQDLEKGNTERYEDARAGET
modifications: all-trans-retinal bound to Lys238 via a protonated Schiff base linkage
notes: Guillardia theta anion channelrhodopsin 1 (GtACR1) with the C-terminal cytoplasmic domain (CPD, 143 amino acids) deleted; composed of 295 amino acids; Calculated molecular mass 34.4 kDa; also called CPD-deleted GtACR1; GtACR1 rhodopsin domain; source: P. pastoris SMD1168H, recombinant expression (pPICZ B vector, codon-optimised gene); not shown: His8, C-terminal, kept
B2: full-length Guillardia theta anion channelrhodopsin 1 (GtACR1_full) (natural protein, UniProt L1J207 1-438, looked up)
chain: MSSITCDPAIYGEWSRENQFCVEKSLITLDGIKYVQLVMAVVSACQVFFMVTRAPKVPWEAIYLPTTEMITYSLAFTGNGYIRVANGKYLPWARMASWLCTCPIMLGLVSNMALVKYKSIPLNPMMIAASSICTVFGITASVVLDPLHVWLYCFISSIFFIFEMVVAFAIFAITIHDFQTIGSPMSLKVVERLKLMRIVFYVSWMAYPILWSFSSTGACIMSENTSSVLYLLGDALCKNTYGILLWATTWGLLNGKWDRDYVKGRNVDGTLMPEYEQDLEKGNTERYEDARAGETFEVKMFGRTLTSVRRSRRRPRRDIVFNGGDRNRLSDSDSERRRRRKKYQRKDSESENSSDESMGSEHEKNRRKGKKKNKENRRSAPPKEDSTSDTLRDAEIKRIMDLMKRNAGSDIPGLDGDGRLRDDGGLIPTRNEEHDDSA
modifications: all-trans-retinal bound to Lys238 via a protonated Schiff base linkage
notes: Guillardia theta anion channelrhodopsin 1 (GtACR1), full length, 438 amino acids (rhodopsin domain plus cytoplasmic domain, CPD); Calculated molecular mass 51.0 kDa; Details of construction and expression are in the Supporting information; also called full-length GtACR1; source: P. pastoris SMD1168H, recombinant expression (pPICZ B vector, codon-optimised gene); not shown: His8, C-terminal, kept

Target: the molecule itself
Experiment: SDS-PAGE and Western blot; P. pastoris cells expressing the protein compared with a negative control; immunoblotting with an anti-His tag antibody; bands assigned to monomer and dimer by molecular mass

Protein | stoichiometry N
B1 | 2
B2 | 2
